Patent publication US20100003195A1 (published 2010)

Molecular target: T1, human KDR-Fc chimeric fusion (R&D Systems #357-KD-05) (human, UniProt P35968 20-764)
T1 chain: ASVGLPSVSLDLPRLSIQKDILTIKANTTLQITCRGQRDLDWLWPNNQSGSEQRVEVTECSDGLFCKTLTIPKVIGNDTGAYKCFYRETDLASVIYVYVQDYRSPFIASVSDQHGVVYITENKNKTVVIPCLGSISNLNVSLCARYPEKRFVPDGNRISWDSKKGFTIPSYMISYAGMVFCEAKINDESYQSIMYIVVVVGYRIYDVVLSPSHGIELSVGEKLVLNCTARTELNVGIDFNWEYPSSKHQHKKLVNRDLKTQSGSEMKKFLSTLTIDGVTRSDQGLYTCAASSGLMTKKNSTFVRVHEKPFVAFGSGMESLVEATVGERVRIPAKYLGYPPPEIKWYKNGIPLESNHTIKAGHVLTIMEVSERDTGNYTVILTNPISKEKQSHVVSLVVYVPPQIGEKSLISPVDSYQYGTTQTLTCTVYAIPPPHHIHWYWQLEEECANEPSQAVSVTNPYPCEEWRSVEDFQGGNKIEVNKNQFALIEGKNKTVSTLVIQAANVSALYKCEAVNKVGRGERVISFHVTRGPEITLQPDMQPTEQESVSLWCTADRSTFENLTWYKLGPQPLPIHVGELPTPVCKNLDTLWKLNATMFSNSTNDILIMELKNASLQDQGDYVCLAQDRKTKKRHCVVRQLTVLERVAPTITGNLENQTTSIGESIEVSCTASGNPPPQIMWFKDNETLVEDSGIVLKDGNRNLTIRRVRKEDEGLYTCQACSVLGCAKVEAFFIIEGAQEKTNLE
Experiment: -; KD, B

Q: With VCWEDSWGGEVCFGGGK [VCWEDSWGGEVCFGGGK (SEQ ID NO: 368)] as the binder, how does the Kd read?
A: 910 nM

Q: For GDSRVCWEDSWGGEVCFGGGK [GDSRVCWEDSWGGEVCFGGGK (SEQ ID NO: 369)], which Kd is on record?
A: 1300 nM

Q: Which Kd does the source give for SRVCWEDSWGGEVCFRYGGGGK [SRVCWEDSWGGEVCFRYGGGGK (SEQ ID NO: 371)] here?
A: 35 nM
